In the DeepSol protein solubility set:

Test: soluble on expression in E. coli; label from the status in PepcDB or PDB records
With “DQQYVKNFLLLVKSDNPEEQAAATETSIPRKLREMRMASTIDSTLSKDDILTRYLNLVHLGNGAFGVEAAARTYFGKGAPELSLAQSAMFAGIVQSSSYLDPYTNPDAVMDRRNVVLDTMAANGYATPEDVAAAKAEPLGVLEQPQGLPNGCITAGDNGFFCDYVLKYLSEKGLSTDQLTQGSYTINTTLDPDVQQAAHAAAAGQVNSHTFGVANVMNIVEPGKDSRKILAMTSSRDYGLDLDAGQTVLPQPTSLVGNGAGSVFKIFTAAVALQQGYGLDTQLQVPPRYEAKGMGDGGAEGCGAGTYCVENSGSYAPQMSLRDALAFSPNTPFVQMIEKVGVKDVVDTSVKLGLRSYANPGTFNKDNSIADYVKEHNLGSYTLGPTAVNPLELSNVAASLASDGMWCEPSPITTVTDAKGNEVFLDRPACEQAIDPEIAQALSAGLSQDTIKGTGAQAAKSLGFSAPTAAKTGTTESHSS” the “soluble on expression in E. coli” value was “not soluble”. With “DQVSRFRLLGGNQVRPLAGGDEAYPAMMQAIREARVSIAMQSYIFDCDPIGREMAQALVEAQQRGVQVRVLIDAIGSKYSRPPIVRTLVRGGVRTARFMTNPLGVMRMPYANLRSHRKILVVDGHVGFTGGMNIRAAFVTALAGKAANGDTHFRLEGPVVAQLMAVFAHDWNFTTRESLEGPTWFPPAPERAPGSVPMRCVASGPDSALGSTHKM” the “soluble on expression in E. coli” value was “not soluble”. With “DRGRMANIFGANNFYYAKSQAMLYTVSQNADFITAGLVDPVFLPLGNQQRAATHLNEPKSQKILFIVAESWGLPANPELQNATFAKLLAQKDRFSVWESGSFPFIGATVEGEMRELCAYGGLRGFALRRAPDEKFARCLPNRLKQEGYATFAMHGAGSSLYDRFSWYPRAGFQEIKTAENLIGKKTCAIFGGVCDSELFGEVSAFFKKHDKGLFYWMTLTSHADYPESDIFNHRLKCTEYGLPAETDLCRNFSLHTQFFDQLADLIQRPEMKGTEVIIVGDHPPPVGNLNETFRYLKQGHVAWLNFKIK” the “soluble on expression in E. coli” value was “not soluble”. For “DSKKIVGVFYKANEYATKNPNFLGCVENALGIRDWLESQGHQYIVTDDKEGPDCELEKHIPDLHVLISTPFHPAYVTAERIKKAKNLKLLLTAGIGSDHIDLQAAAAAGLTVAEVTGSNVVSVAEDELMRILILMRNFVPGYNQVVKGEWNVAGIAYRAYDLEGKTIGTVGAGRIGKLLLQRLKPFGCNLLYHDRLQMAPELEKETGAKFVEDLNEMLPKCDVIVINMPLTEKTRGMFNKELIGKLKKGVLIVNNARGAIMERQAVVDAVESGHIGGYSGDVWDPQPAPKDHPWRYMPNQAMTPHTSGTTIDAQLRYAAGTKDMLERYFKGEDFPTENYIVKDGELAPQYR”, the “soluble on expression in E. coli” value was “soluble”. In the case of “DSLGWSNVDVLDRICEAYGFSQKIQLANHFDIASSSLSNRYTRGAISYDFAAHCALETGANLQWLLTGEGEAFVNNRESSDAKRIEGFTLSEEILKSDKQLSVDAQFFTKPLTDGMAIRSEGKIYFVDKQASLSDGLWLVDIKGAISIRELTKLPGRKLHVAGGKVPFECGIDDIKTLGRVVGVYSEVN”, the “soluble on expression in E. coli” value is reported as “soluble”. For “DVQLQESGTVLARPGASVKMSCKASGYSFTSYWMHWIKQRPGQGLEWIGGVYPGDSHTSYNQKFKGKAKLTAVTSASTAYMELSSLTNEDSAVYYCTRSGFDYGNEDWGQGTTLTVSSAKTTPPSVYPLAPGSAAQTNSMVTLGCLVKGYFPEPVTVTWNSGSLSSGVHTFPAVLQSDLYTLSSSVTVPSSPRPSETVTCNVAHPASSTKVDKKI”, the “soluble on expression in E. coli” value was “soluble”. For “DVQLVESGGGLVQPGGSRKLSCAASGFTFSSFGMHWVRQAPEKGLEWVAYISSGSSTLHYADTVKGRFTISRDNPKNTLFLQMTSLRSEDTGMYYCARWGNYPYYAMDYWGQGTSVTVSSAKTTPPSVYPLAPGSAAQTNSMVTLGCLVKGYFPEPVTVTWNSGSLSSGVHTFPAVLQSDLYTLSSSVTVPSSPRPSETVTCNVAHPASSTKVDKKIVPRDC”, the “soluble on expression in E. coli” value was “soluble”.
